Substitutions are numbered along the chain they refer to. Names may count otherwise.
B1: TwinStrep-BICD2 WT (natural protein, mouse, UniProt Q921C5 1-820, looked up)
chain: MSAPSEEEEYARLVMEAQPEWLRAEVKRLSHELAETTREKIQAAEYGLAVLEEKHQLKLQFEELEVDYEAIRSEMEQLKEAFGQAHTNHKKVAADGESREESLIQESASKEQYYVRKVLELQTELKQLRNVLTNTQSENERLTSVAQELKEINQNVEIQRGRLRDDIKEYKFREARLLQDYSELEEENISLQKQVSVLRQNQVEFEGLKHEIKRLEEETEYLNSQLEDAIRLKEISERQLEEALETLKTEREQKNNLRKELSHYMSINDSFYTSHLQVSLDGLKFSDDTVTAEPNNDAEALVNGFEHSGLVKSSLDNKTSTPRKDGLAPPSPSLVSDLLSELHISEIQKLKQQLVQMEREKVGLLATLQDTQKQLEQARGTLSEQHEKVNRLTENLSALRRLQAGKERQTSLDNEKDRDSHEDGDYYEVDINGPEILACKYHVAVAEAGELREQLKALRSTHEAREAQHAEEKGRYEAEGQALTEKISLLEKASHQDRELLAHLEKELKKVSDVAGETQGSLNVAQDELVTFSEELANLYHHVCMCNNETPNRVMLDYYREGQGKAGRTSPEGRGRRSPVLLPKGLLATEVGRADGGTGDNSPSPSSSLPSPLSDPRREPMNIYNLIAIIRDQIKHLQAAVDRTTELSRQRIASQELGPAVDKDKEALMEEILKLKSLLSTKREQITTLRTVLKANKQTAEVALANLKSKYENEKAMVTETMMKLRNELKALKEDAATFSSLRAMFATRCDEYITQLDEMQRQLAAAEDEKKTLNSLLRMAIQQKLALTQRLELLELDHEQTRRGRSKAASKAKPASPSL
notes: BICD2, mouse cDNA amplified from the pEGFP constructs into pLIB-TwinStrep-3C-BICD2; A 3C site lies between tag and protein; no cleavage is described; also called full-length BICD2 WT; wild type TwinStrep-BICD2; source: insect cells (baculovirus), purified (StrepTactinXT, Superdex 200); not shown: TwinStrep, N-terminal, kept
B2: TwinStrep-BICD2 S102D (natural protein, mouse, UniProt Q921C5 1-820, looked up)
chain: B1 chain with S102D
notes: BICD2, mouse, with S102D (pLIB-TwinStrep-3C-BICD2 S102D); A 3C site lies between tag and protein; no cleavage is described; also called full-length BICD2 S102D; S102D TwinStrep-BICD2; source: insect cells (baculovirus), purified (StrepTactinXT, Superdex 200); not shown: TwinStrep, N-terminal, kept
B3: GST-Rab6A (natural protein, human, UniProt P20340 1-208, looked up)
chain: MSTGGDFGNPLRKFKLVFLGEQSVGKTSLITRFMYDSFDNTYQATIGIDFLSKTMYLEDRTVRLQLWDTAGQERFRSLIPSYIRDSTVAVVVYDITNVNSFQQTTKWIDDVRTERGSDVIIMLVGNKTDLADKRQVSIEEGERKAKELNVMFIETSAKAGYNVKQLFRRVAAALPGMESTQDRSREDMIDIKLEKPQEQPVSEGGCSC
notes: Preloaded with either GDP or GTPγS before the pull-down

Columns and labels:
[1] = molecular target: B3; test: pull-down; GST-Rab6 on GSH agarose beads preloaded with GTPγS, incubated 90 min at RT with purified TwinStrep-BICD2 in Binding Buffer (50 mM Tris pH 7.4, 125 mM NaCl, 5 mM EDTA, 0.1% NP40); blot with anti-BICD2; details: both partners purified
[2] = molecular target: the molecule itself; test: SEC-MALS; purified TwinStrep-BICD2 WT and S102D; predicted MW of ~190 kDa
[3] = molecular target: B2; test: pull-down; GST-Rab6 on GSH agarose beads preloaded with GTPγS, incubated 90 min at RT with purified TwinStrep-BICD2 in Binding Buffer (50 mM Tris pH 7.4, 125 mM NaCl, 5 mM EDTA, 0.1% NP40); blot with anti-BICD2; details: both partners purified

Row | Binder | fold binding against Rab6 preloaded with GDP [1] [fold] | stoichiometry N [2] | binding result [3]
1 | B1 | ~5 |  | 
2 | B2 | ~5 | 2 | 
3 | B3 |  |  | binds

Source: paper PMC10140047, “BICD2 phosphorylation regulates dynein function and centrosome separation in G2 and M” (Nature Communications, 2023)
